Data on three molecules can be found in article PMC5667929, “Combinatorial action of Grainyhead, Extradenticle and Notch in regulating Hox mediated apoptosis in Drosophila larval CNS”.

One data set deals with AbdA (Hox);Exd/Hth-HM (Drosophila melanogaster?;Drosophila …, UniProt P29555;P40427;O46339 261-590;1-376;127-211, |). The data set can be described thus: EMSA; EMSA, 20 ul, 30 min, room temperature; 5X buffer as printed: 20% glycerol, 1 mg/ml BSA, 2.5 mM EDTA, '50mM 1M tris' pH 7.5, 50 mM KCl, 5 mM MgCl2, 2.5 mM DTT, 90 ug/ml poly(dI-dC); proteins 100-200 ng. The conditions noted are these: protein: recombinant;recombinant; tags: 6xHis;6xHis; copies: 1;1;1. On the technique in general: A gel shift assay detects complexes by their altered migration in electrophoresis.
Sequence of AbdA (Hox);Exd/Hth-HM (P29555 261-590, one chain of several): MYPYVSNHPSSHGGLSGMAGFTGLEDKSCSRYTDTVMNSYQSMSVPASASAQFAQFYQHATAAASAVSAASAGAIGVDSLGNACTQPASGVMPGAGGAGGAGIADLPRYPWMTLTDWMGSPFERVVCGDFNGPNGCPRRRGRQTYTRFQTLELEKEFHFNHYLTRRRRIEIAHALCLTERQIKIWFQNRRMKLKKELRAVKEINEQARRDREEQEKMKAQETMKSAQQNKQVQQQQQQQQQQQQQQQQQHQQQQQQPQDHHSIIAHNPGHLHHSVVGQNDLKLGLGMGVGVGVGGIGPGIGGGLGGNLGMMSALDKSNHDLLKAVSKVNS

Data set [1] has as its target T1, AbdA (Hox);Exd/Hth-HM;Grh (Drosophila melanogaster?;Drosophila …, UniProt P29555;P40427;O46339;P13002 261-590;1-376;127-211;551-1333, ||). The description is as above. As to conditions: protein: recombinant;recombinant;recombinant; tags: 6xHis;6xHis;6xHis; copies: 1;1;1;2.
Target sequence in this assay (P29555 261-590, chain 1 of 4, one chain of several): as the sequence (P29555 261-590, one chain of several) above
Target sequence in this assay (P13002 551-1333, chain 4 of 4, one chain of several): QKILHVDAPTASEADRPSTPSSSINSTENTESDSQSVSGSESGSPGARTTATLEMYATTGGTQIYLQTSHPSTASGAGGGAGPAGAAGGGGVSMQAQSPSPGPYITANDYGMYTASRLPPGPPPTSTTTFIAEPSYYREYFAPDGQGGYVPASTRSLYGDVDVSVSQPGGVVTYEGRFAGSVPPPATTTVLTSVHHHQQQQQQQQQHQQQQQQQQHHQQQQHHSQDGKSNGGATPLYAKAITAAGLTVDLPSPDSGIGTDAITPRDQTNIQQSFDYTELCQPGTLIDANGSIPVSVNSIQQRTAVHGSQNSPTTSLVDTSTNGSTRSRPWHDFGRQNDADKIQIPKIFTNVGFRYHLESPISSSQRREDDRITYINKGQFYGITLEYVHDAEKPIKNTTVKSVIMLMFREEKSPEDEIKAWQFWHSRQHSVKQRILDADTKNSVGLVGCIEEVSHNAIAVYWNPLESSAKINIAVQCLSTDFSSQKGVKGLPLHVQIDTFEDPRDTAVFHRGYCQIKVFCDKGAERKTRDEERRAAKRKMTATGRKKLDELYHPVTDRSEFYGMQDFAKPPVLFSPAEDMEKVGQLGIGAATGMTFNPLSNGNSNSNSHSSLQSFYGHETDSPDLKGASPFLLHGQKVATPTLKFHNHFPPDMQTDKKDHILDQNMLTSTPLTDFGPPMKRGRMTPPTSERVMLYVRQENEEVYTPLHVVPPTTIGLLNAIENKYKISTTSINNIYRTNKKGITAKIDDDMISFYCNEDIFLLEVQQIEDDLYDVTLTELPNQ
The target of data set [2] is T2, AbdA (Hox);Grh (Drosophila melanogaster?;Drosophila …, UniProt P29555;P13002 261-590;551-1333, |). The data set is described as follows: EMSA; 'compromised'; later 'abolished completely'; EMSA, 20 ul, 30 min, room temperature; 5X buffer as printed: 20% glycerol, 1 mg/ml BSA, 2.5 mM EDTA, '50mM 1M tris' pH 7.5, 50 mM KCl, 5 mM MgCl2, 2.5 mM DTT, 90 ug/ml poly(dI-dC); proteins 100-200 ng. As to conditions: protein: recombinant;recombinant; tags: 6xHis;6xHis; copies: 1;2.
T2 sequence (P29555 261-590, chain 1 of 2): as the sequence (P29555 261-590, one chain of several) above
T2 sequence (P13002 551-1333, chain 2 of 2): as the sequence (P13002 551-1333, chain 4 of 4, one chain of several) above

For data set [3], the target named is T3, AbdA (Hox) (UniProt P29555 261-590). The data set can be described thus: EMSA; no significant binding; EMSA, 20 ul, 30 min, room temperature; 5X buffer as printed: 20% glycerol, 1 mg/ml BSA, 2.5 mM EDTA, '50mM 1M tris' pH 7.5, 50 mM KCl, 5 mM MgCl2, 2.5 mM DTT, 90 ug/ml poly(dI-dC); proteins 100-200 ng. As to conditions: protein: recombinant; tags: 6xHis.
T3 sequence (P29555 261-590): as the sequence (P29555 261-590, one chain of several) above
In a further data set the target is T4, Exd/Hth-HM (UniProt P40427;O46339 1-376;127-211).
T4 sequence 1: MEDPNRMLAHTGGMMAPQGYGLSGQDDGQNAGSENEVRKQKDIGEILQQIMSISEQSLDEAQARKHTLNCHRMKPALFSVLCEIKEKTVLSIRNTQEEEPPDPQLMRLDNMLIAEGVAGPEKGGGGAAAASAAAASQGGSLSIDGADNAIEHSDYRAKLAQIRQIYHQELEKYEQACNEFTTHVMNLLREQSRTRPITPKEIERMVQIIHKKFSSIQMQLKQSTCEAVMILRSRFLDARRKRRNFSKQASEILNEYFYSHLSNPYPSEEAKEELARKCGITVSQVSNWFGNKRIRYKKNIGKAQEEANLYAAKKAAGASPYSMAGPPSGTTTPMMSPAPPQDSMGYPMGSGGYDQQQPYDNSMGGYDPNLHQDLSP
T4 sequence 2: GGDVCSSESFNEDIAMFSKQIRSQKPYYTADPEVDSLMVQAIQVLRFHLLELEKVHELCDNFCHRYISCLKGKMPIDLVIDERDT
Described as above. The conditions noted are these: protein: recombinant; tags: 6xHis; copies: 1;1.

For a further data set, the target named is Grh (UniProt P13002 551-1333). The data set is described as follows: EMSA; EMSA, 20 ul, 30 min, room temperature; 5X buffer as printed: 20% glycerol, 1 mg/ml BSA, 2.5 mM EDTA, '50mM 1M tris' pH 7.5, 50 mM KCl, 5 mM MgCl2, 2.5 mM DTT, 90 ug/ml poly(dI-dC); proteins 100-200 ng. The conditions noted are these: protein: recombinant; tags: 6xHis; chain copies: 2.
Sequence of Grh (P13002 551-1333): as the sequence (P13002 551-1333, chain 4 of 4, one chain of several) above

The target of data set [4] is T1, AbdA (Hox);Exd/Hth-HM;Grh. The data set is described as follows: EMSA; completely abolished in text; largely per legend; EMSA, 20 ul, 30 min, room temperature; 5X buffer as printed: 20% glycerol, 1 mg/ml BSA, 2.5 mM EDTA, '50mM 1M tris' pH 7.5, 50 mM KCl, 5 mM MgCl2, 2.5 mM DTT, 90 ug/ml poly(dI-dC); proteins 100-200 ng. As to conditions: protein: recombinant;recombinant;recombinant; tags: 6xHis;6xHis;6xHis; copies: 1;1;1;2.
Target sequence in this assay (P29555 261-590, chain 1 of 2): as the sequence (P29555 261-590, one chain of several) above
Target sequence in this assay (P13002 551-1333, chain 4 of 2): as the sequence (P13002 551-1333, chain 4 of 4, one chain of several) above

Data set [5] has as its target T3, AbdA (Hox). The data set can be described thus: EMSA; EMSA, 20 ul, 30 min, room temperature; 5X buffer as printed: 20% glycerol, 1 mg/ml BSA, 2.5 mM EDTA, '50mM 1M tris' pH 7.5, 50 mM KCl, 5 mM MgCl2, 2.5 mM DTT, 90 ug/ml poly(dI-dC); proteins 100-200 ng. The conditions noted are these: protein: recombinant; tags: 6xHis.
Data set [6] addresses T2, AbdA (Hox);Grh. Described as above. As to conditions: protein: recombinant;recombinant; tags: 6xHis;6xHis; copies: 1;2.

B1: motif-30 Grh1 mutant (dsDNA)
DNA 1: GAAACACGATAACCATAACTAATCC
DNA 2: GGATTAGTTATGGTTATCGTGTTTC
Consider B1, for which the binding result in the data set with AbdA (Hox);Exd/Hth-HM is “binds”; in data set [1], “no binding”; with AbdA (Hox);Grh [2] it was “no binding”.

B2: motif-24 (dsDNA)
DNA 1: CGCTCATAAAGTTAACCAACGATTTCATTCCTAAAC
DNA 2: GTTTAGGAATGAAATCGTTGGTTAACTTTATGAGCG
B2: the binding result is “no binding” with AbdA (Hox) [3], “no binding” in the data set with Exd/Hth-HM, “binds” with AbdA (Hox);Exd/Hth-HM and “no binding” with Grh.

B3: motif-30 Hox2 mutant (dsDNA)
DNA 1: GAAACAGGATAACCAGGACTAATCC
DNA 2: GGATTAGTCCTGGTTATCCTGTTTC
Regarding B3, the binding result was “no binding” in [4]; “no binding” in the data set with AbdA (Hox);Exd/Hth-HM; “no binding” with AbdA (Hox) [5]; “no binding” with AbdA (Hox);Grh [6]; “binds” with Grh.
